Experimental findings from publication PMC13043726, “SFPQ directs histone H3.3 deposition to R-loops in DNA repeats to protect genome stability” are described below.

Data set [1] addresses HA-tagged DAXX, full length (UniProt Q9UER7). Description: co-immunoprecipitation (IP anti-HA, blot anti-Myc). Particulars: U-2 OS cells; parent: 1.
The next data set deals with T1, SFPQ full-length (Homo sapiens, UniProt P23246 1-707).
T1 sequence: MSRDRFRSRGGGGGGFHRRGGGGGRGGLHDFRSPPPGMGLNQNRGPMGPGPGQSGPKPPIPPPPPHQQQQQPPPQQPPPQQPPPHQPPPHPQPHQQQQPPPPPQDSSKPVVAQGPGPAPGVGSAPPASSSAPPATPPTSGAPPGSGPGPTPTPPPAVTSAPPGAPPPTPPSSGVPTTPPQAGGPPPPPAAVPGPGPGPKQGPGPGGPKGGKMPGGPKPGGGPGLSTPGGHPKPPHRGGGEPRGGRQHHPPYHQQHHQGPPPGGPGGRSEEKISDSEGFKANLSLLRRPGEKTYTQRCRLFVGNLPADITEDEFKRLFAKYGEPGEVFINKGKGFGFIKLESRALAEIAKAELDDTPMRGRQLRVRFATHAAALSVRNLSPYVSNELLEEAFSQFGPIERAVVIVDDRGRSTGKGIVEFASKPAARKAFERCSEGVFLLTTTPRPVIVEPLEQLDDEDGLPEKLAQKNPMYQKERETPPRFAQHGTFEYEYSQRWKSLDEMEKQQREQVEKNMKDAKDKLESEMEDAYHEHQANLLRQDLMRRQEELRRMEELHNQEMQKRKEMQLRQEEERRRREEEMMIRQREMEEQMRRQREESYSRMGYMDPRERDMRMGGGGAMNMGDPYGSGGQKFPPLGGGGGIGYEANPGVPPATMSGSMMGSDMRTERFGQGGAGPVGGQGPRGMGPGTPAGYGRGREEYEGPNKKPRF
The data set is described as follows: EMSA; EMSA: 10 nM probe, 0-1600 nM SFPQ, 20 mM Tris-HCl pH 7.5, 100 mM KCl, 0.5 mM MgCl2, 0.5 mM EDTA, 0.2 mM DTT, 1% glycerol, room temperature, 30 min (RNaseOUT with RNA); 5% native PAGE, 1xTBE. The note with it: protein: recombinant, tags: N-terminal His6-myc (vector pNIC-CTHF), chain copies: 2. On the technique in general: In EMSA bound probe runs differently from free probe, usually more slowly.

Setting [2] is: label: 5'-6-FAM on strand 1, blunt.

HA-tagged DAXX, full length, sequence (Q9UER7 whole entry): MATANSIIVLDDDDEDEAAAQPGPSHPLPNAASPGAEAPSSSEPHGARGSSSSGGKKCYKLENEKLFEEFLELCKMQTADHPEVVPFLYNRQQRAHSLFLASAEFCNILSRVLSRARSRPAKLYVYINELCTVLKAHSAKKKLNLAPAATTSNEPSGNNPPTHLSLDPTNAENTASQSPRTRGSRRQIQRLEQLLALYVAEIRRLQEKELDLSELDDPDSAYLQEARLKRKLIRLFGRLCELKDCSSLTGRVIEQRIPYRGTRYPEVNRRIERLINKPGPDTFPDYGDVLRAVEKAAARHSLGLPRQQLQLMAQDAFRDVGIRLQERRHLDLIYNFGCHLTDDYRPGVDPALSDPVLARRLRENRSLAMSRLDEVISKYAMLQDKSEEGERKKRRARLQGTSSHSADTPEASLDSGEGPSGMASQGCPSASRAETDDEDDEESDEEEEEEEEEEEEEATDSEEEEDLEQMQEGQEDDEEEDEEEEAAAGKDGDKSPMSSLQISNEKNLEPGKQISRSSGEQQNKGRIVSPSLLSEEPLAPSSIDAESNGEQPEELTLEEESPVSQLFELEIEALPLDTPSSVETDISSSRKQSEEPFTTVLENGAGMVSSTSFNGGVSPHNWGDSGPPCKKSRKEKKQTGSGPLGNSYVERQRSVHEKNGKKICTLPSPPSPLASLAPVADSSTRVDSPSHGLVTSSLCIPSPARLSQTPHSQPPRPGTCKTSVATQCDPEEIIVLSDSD

As to “SFPQ proline-rich P-domain fused to GFP and a nuclear localization signal, myc-tagged (from UniProt P23246) T150delinsKP”, the ratio to parent in data set [1] was 0.2.

B1: 23-nt dsDNA (D1_B:D3_B) (dsDNA)
DNA 1: CTACTACCCCCACCCTCACAACC
DNA 2: GGTTGTGAGGGTGGGGGTAGTAG
As to B1, the binding result with SFPQ full-length (setting [2]) is given as “no binding”.

B2: ssRNA Pericentric1 (SatIII [GGAAU]4) (ssRNA)
RNA: GGAAUGGAAUGGAAUGGAAUGGA
Take B2: the binding result in the data set with SFPQ full-length (label: 5'-6-FAM, single strand) was “binds”.

B3: 23-nt DNA:RNA hybrid (D1_B:R2_B) (DNA:RNA)
DNA: CTACTACCCCCACCCTCACAACC
RNA: GGUUGUGAGGGUGGGGGUAGUAG
For the molecule B3, the binding result with SFPQ full-length (label: 5'-6-FAM on DNA strand, blunt) is “no binding”.

B4: ssRNA TERRA [UUAGGG]4 (ssRNA)
RNA: UUAGGGUUAGGGUUAGGGUUAGGG
As to B4, the binding result with SFPQ full-length (label: 5'-6-FAM, single strand) is recorded as “binds”.

B5: ssRNA Pericentric2 ([GAAA]5) (ssRNA)
RNA: GAAAGAAAGAAAGAAAGAAAGAA
Take B5: the binding result with SFPQ full-length (label: 5'-6-FAM, single strand) was “binds”.

B6: 23-nt blunt dsRNA (R1_B:R2_B) (dsRNA)
RNA 1: CUACUACCCCCACCCUCACAACC
RNA 2: GGUUGUGAGGGUGGGGGUAGUAG
Regarding B6, in the data set with SFPQ full-length (setting [2]), the binding result is “no binding”.
